Measurements reported in article PMC3742808.
Like-named read-outs stand apart in the source and are kept apart here.

What was measured:
[1] = target: recombinant human APC/C (without CDH1) (human) (UniProt Q9H1A4); assay: enzyme inhibition
[2] = target: recombinant human APC/C (without CDH1) (human) (UniProt Q9H1A4); assay: enzyme inhibition; remark: listed apart in the source

Ki [1]: 48 µM
Ki [2]: 13 µM
Substance: EMI1^T (synthetic peptide corresponding to the EMI1 C-terminal tail)
